From PMC4679524 come the findings set out here.

In experiment [1] the target is GST-LE, dual phosphorylated (CK2 plus Syk, 2 added phosphates) (encephalomyocarditis virus (EMCV)). The experiment is described as follows: SEC. (In general: Size exclusion chromatography separates by hydrodynamic size, large species first.)
Experiment [2] has the same target. Description: pull-down.
Experiment [3] addresses GST-LE, singly phosphorylated (reacted with CK2, 1 added phosphate) (encephalomyocarditis virus (EMCV)). Description: pull-down.

GST-LE, dual phosphorylated (CK2 plus Syk, 2 added phosphates) (encephalomyocarditis virus (EMCV)), sequence (P03304 1-67 limits assumed): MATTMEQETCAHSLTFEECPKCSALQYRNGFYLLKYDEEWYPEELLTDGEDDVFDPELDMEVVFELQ
GST-LE, singly phosphorylated (reacted with CK2, 1 added phosphate) (encephalomyocarditis virus (EMCV)), sequence (P03304 1-67 limits assumed): as above

With “rCrm1 (recombinant His-tagged murine Crm1) (from UniProt Q6P5F9 1-1071) (natural protein)”, in experiment [1], the stoichiometry N turned out to be 1. The percent stronger rCrm1 signal per unit of GST(-LE) than without phosphate in experiment [2] and in experiment [3] was 50 to 70% in each case.

The stoichiometry N is a count of units in the complex or per binding partner.
